The source of these data is the Immune Epitope Database (IEDB).

In one experiment the target is HLA-A*24:02. As to the kind of experiment: IEDB peptide-MHC binding, purified MHC/competitive/fluorescence; ≥ and ≤ were set here for values at or beyond the usual limits of such assays.
The target in the next experiment is HLA-B*07:02. The description is as above.
A further experiment addresses HLA-B*08:01. The experiment is described as above.
The target of experiment [1] is HLA-A*01:01. As to the kind of experiment: IEDB peptide-MHC binding, purified MHC/competitive/fluorescence; filed as Kd, often an IC50 or EC50 that approximates it; ≥ and ≤ were set here for values at or beyond the usual limits of such assays.
The target of experiment [2] is HLA-A*03:01. Described as above. To be noted: source organism: Escherichia coli O157:H7 str. Sakai.
A further experiment deals with HLA-A*26:01. The description is as above.
The target in experiment [3] is HLA-A*02:01. As to the kind of experiment: IEDB peptide-MHC binding, purified MHC/competitive/fluorescence; ≥ and ≤ were set here for values at or beyond the usual limits of such assays. To be noted: source organism: Zaire ebolavirus.
The target of experiment [4] is HLA-B*15:01. The description is as above.
Experiment [5] has as its target HLA-A*01:01. Put plainly: IEDB peptide-MHC binding, purified MHC/direct/fluorescence; filed as Kd, often an IC50 or EC50 that approximates it; ≥ and ≤ were set here for values at or beyond the usual limits of such assays.
For another experiment, the target named is HLA-A*02:03. Described as above.
Another experiment concerns the target HLA-A*02:12. Described as above.
A further experiment deals with HLA-A*02:16. The description is as above.
A further experiment concerns the target HLA-A*02:19. The description is as above.
Experiment [6] has as its target HLA-A*03:01. Described as above.
The target in the next experiment is HLA-A*23:01. The experiment is described as above.
For the next experiment, the target named is HLA-A*24:03. The experiment is described as above.
The next experiment deals with HLA-A*68:02. Described as above.
Experiment [7] concerns the target HLA-A*02:01. Put plainly: IEDB peptide-MHC binding, purified MHC/competitive/fluorescence; filed as Kd, often an IC50 or EC50 that approximates it; ≥ and ≤ were set here for values at or beyond the usual limits of such assays.
The next experiment addresses HLA-A*69:01. Described as above.
In experiment [8] the target is HLA-B*15:01. The description is as above.
The target in another experiment is HLA-B*15:17. Described as above.
For a further experiment, the target named is HLA-B*18:01. The description is as above.
For the next experiment, the target named is HLA-B*27:03. The description is as above.
A further experiment addresses HLA-B*39:01. Described as above.
In a further experiment the target is HLA-B*46:01. The experiment is described as above.
The target of a further experiment is HLA-B*51:01. The description is as above.
Another experiment deals with HLA-B*57:01. The experiment is described as above.
For the next experiment, the target named is HLA-A*02:11. Put plainly: IEDB peptide-MHC binding, purified MHC/direct/fluorescence; filed as Kd, often an IC50 or EC50 that approximates it; ≥ and ≤ were set here for values at or beyond the usual limits of such assays.
For the next experiment, the target named is HLA-A*11:01. Described as above. As to conditions: source organism: Rickettsia sibirica 246.
Another experiment addresses HLA-A*29:02. Described as above. To be noted: source organism: Zaire ebolavirus.
The mark [9] stands for this setting: source organism: Sudan ebolavirus.
[10] abbreviates: source organism: Zaire ebolavirus.
The mark [11] stands for this setting: source organism: Escherichia coli.
[12] abbreviates: source organism: Vaccinia virus Copenhagen.
Setting [13] is: source organism: Vaccinia virus.
[14] abbreviates: source organism: Influenza A virus H3N2.
The mark [15] stands for this setting: source organism: Influenza A virus (A/Memphis/1/1978(H1N1)).
The mark [16] stands for this setting: source organism: Bacillus anthracis str. A0488.
Where [17] appears, read: source organism: Rickettsia sibirica 246.

Consider GFPRCRYVH, for which the IC50 with HLA-A*24:02 (setting [9]) is 1.22 µM; in the experiment with HLA-B*07:02 (setting [9]) it was no less than 82.4 µM; with HLA-B*08:01 (setting [10]), 12.3 µM.
In the case of GSQYVSLAY, the equilibrium dissociation constant (Kd) is 0.0321 µM with HLA-A*01:01 [1] (source organism: Escherichia coli O157:H7 str. Sakai) and 4.5 µM with HLA-A*03:01 [2].
AAPLMQSLY: the figures for the Kd in the experiment with HLA-A*01:01 [1] (setting [11]) and in the experiment with HLA-A*26:01 (setting [11]) were no less than 20 µM and 1.33 µM, respectively.
Turning to ERLAKLTEA, the 50% inhibitory concentration (IC50) with HLA-A*02:01 [3] is no less than 175 µM; in the experiment with HLA-B*08:01 (setting [10]) it was no less than 106 µM.
Consider FLLQRWGGT, for which the concentration for half-maximal inhibition (IC50) turned out to be 8.24 µM with HLA-A*02:01 [3] and 6.33 µM in the experiment with HLA-B*08:01 (setting [10]).
Turning to YANCSSISI, the IC50 with HLA-A*24:02 (setting [12]) is 1.33 µM; in the experiment with HLA-B*07:02 (setting [12]), no less than 175 µM; with HLA-B*08:01 (setting [12]) it was no less than 1080 µM; in the experiment with HLA-B*15:01 [4] (setting [12]) it was 24.8 µM.
Sequence YRNKPSIAT registered a 50% inhibitory concentration (IC50) with HLA-B*08:01 (setting [13]) of no less than 130 µM.
Regarding FLLIHQGMH, the figures for the half-maximal inhibitory concentration (IC50) in the experiment with HLA-A*02:01 [3], with HLA-B*08:01 (setting [10]) and with HLA-B*15:01 [4] (setting [10]) were 9.52 µM, no less than 230 µM and no less than 230 µM, respectively.
As for AVDADDSHF, the Kd with HLA-A*01:01 [5] (source organism: Influenza A virus (A/New York/140/1999(H3N2))), in the experiment with HLA-A*02:03 (setting [14]), with HLA-A*02:12 (setting [14]), with HLA-A*02:16 (setting [14]), in the experiment with HLA-A*02:19 (setting [14]) and with HLA-A*03:01 [6] (setting [14]) was no less than 20 µM each time. Also, the Kd with HLA-A*23:01 (setting [14]), with HLA-A*24:03 (setting [14]), with HLA-A*68:02 (setting [14]), with HLA-A*02:01 [7] (setting [15]), with HLA-A*26:01 (setting [15]) and with HLA-A*69:01 (setting [15]) was no less than 20 µM each time. The equilibrium dissociation constant (Kd) with HLA-B*15:01 [8] (setting [15]), in the experiment with HLA-B*15:17 (setting [15]), with HLA-B*18:01 (setting [15]), in the experiment with HLA-B*27:03 (setting [15]), with HLA-B*39:01 (setting [15]) and with HLA-B*46:01 (setting [15]) was no less than 20 µM throughout. For the same sequence, the Kd in the experiment with HLA-B*51:01 (setting [15]) and with HLA-B*57:01 (setting [15]) was no less than 20 µM throughout.
In turn, TLDSEDGLY yielded a Kd with HLA-A*01:01 [1] (setting [16]) of 0.0016 µM.
Regarding SVANIDRIK, the Kd with HLA-A*02:03 (setting [17]), with HLA-A*02:11 (setting [17]), in the experiment with HLA-A*02:12 (setting [17]), with HLA-A*02:16 (setting [17]), with HLA-A*02:19 (setting [17]) and with HLA-A*03:01 [6] (setting [17]) was no less than 20 µM in each case. For the same sequence, the Kd was 0.006 µM in the experiment with HLA-A*11:01; no less than 20 µM with HLA-A*23:01 (setting [17]); no less than 20 µM with HLA-A*24:03 (setting [17]); no less than 20 µM with HLA-A*68:02 (setting [17]); no less than 20 µM in the experiment with HLA-A*02:01 [7] (setting [17]); no less than 20 µM with HLA-A*26:01 (setting [17]). In addition, the Kd with HLA-A*69:01 (setting [17]), with HLA-B*15:17 (setting [17]), with HLA-B*18:01 (setting [17]), in the experiment with HLA-B*27:03 (setting [17]), with HLA-B*39:01 (setting [17]) and with HLA-B*46:01 (setting [17]) was no less than 20 µM in each case. The Kd with HLA-B*51:01 (setting [17]) and in the experiment with HLA-B*57:01 (setting [17]) was no less than 20 µM throughout.
For LLDNSMFTY, the Kd in the experiment with HLA-A*01:01 [1] (setting [16]) was 0.0038 µM.
For the sequence EPPLVRHAC, the 50% inhibitory concentration (IC50) in the experiment with HLA-B*07:02 (setting [13]) was no less than 162 µM; with HLA-B*08:01 (setting [13]), no less than 521 µM.
Regarding LSDAIFDDL, the Kd was 1.85 µM with HLA-A*01:01 [5] (source organism: Sudan ebolavirus - Maleo (1979)); no less than 20 µM in the experiment with HLA-A*02:03 (setting [10]); no less than 20 µM in the experiment with HLA-A*02:11 (setting [10]); no less than 20 µM with HLA-A*02:12 (setting [10]); no less than 20 µM in the experiment with HLA-A*02:16 (setting [10]); no less than 20 µM with HLA-A*02:19 (setting [10]). In addition, the Kd with HLA-A*03:01 [6] (setting [10]), in the experiment with HLA-A*23:01 (setting [10]), in the experiment with HLA-A*24:03 (setting [10]), with HLA-A*29:02, in the experiment with HLA-A*68:02 (setting [10]) and in the experiment with HLA-A*02:01 [7] (setting [10]) was no less than 20 µM each time. Further, the Kd with HLA-A*26:01 (setting [10]), with HLA-A*69:01 (setting [10]), with HLA-B*15:01 [8] (setting [10]), with HLA-B*15:17 (setting [10]), with HLA-B*18:01 (setting [10]) and in the experiment with HLA-B*27:03 (setting [10]) was no less than 20 µM each time. Further, the Kd with HLA-B*39:01 (setting [10]), with HLA-B*46:01 (setting [10]), with HLA-B*51:01 (setting [10]) and in the experiment with HLA-B*57:01 (setting [10]) was no less than 20 µM throughout.
For the sequence FLRYLLFGI, the values for the IC50 with HLA-A*24:02 (setting [13]), with HLA-B*07:02 (setting [13]) and with HLA-B*08:01 (setting [13]) were 16.5 µM, no less than 1010 µM and no less than 193 µM, respectively.

As usually defined, the IC50 is the concentration at which inhibition is half-maximal. Read a high IC50 as weaker potency. What is called Kd is the equilibrium constant for the complex coming apart. Low readings indicate a tighter complex, high ones a looser complex.
